This is an account of results in US7556938B1, “Nucleic acids encoding potassium channel interactors” (Millennium Pharmaceuticals, Inc., priority 1998, dated 2009).

Experiment [1] deals with T1, rKv4.3N (Rattus norvegicus, UniProt Q62897).
T1 construct: expressed in transfected cells; host or cells: yeast HF7c (bait), mated with Y187 (fish)
T1 sequence (Q62897 1-180): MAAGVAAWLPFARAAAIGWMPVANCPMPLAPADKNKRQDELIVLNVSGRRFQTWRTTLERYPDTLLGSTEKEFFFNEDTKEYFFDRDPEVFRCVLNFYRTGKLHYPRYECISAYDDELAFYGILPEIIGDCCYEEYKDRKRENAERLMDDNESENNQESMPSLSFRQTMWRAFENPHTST
Put plainly: Yeast two-hybrid binding and specificity test, Kv4.3 N-terminal bait. The note with it: for preference between rKv4.3N and rKv4.2N in yeast two-hybrid assay: rKv4.3N versus rKv4.2N. As to the method: The first 180 amino acids of rKv4.3 (described in Serdio P. et al. (1996) J. Neurophys 75:2174-2179) were amplified by PCR and cloned in frame into pGBT9 resulting in plasmid pFWA2, (hereinafter “bait”). This bait was transformed into the two-hybrid screening strain HF7c and tested for expression and self-activation. The bait was validated for expression by Western blotting.
(§1) Two-hybrid screens were carried out essentially as described in Bartel, P. et al. (1993) “Using the Two-Hybrid System to Detect Polypeptide-Polypeptide Interactions” in Cellular Interactions in Development: A Practical Approach, Hartley, D. A. ed. Oxford University Press, Oxford, pp. 153-179, with a bait-library pair of rkv4.3 bait-rat mid brain library. A filter disk beta-galactosidase (beta-gal) assay was performed essentially as previously described (Brill et al. (1994) Mol. Biol. Cell. 5:297-312). Clones that were positive for both reporter gene activity (His and beta-galactosidase) were scored and fish, plasmids were isolated from yeast, transformed into E. coli strain KC8, DNA plasmids were purified and the resulting plasmids were sequenced by conventional methods (Sanger F. et al. (1977) PNAS, 74: 5463-67).
(§2) Positive interactor clones were subjected to a binding specificity test where they were exposed to a panel of related and unrelated baits by a mating scheme previously described (Finley R. L. Jr. et al. (1994) PNAS, 91(26):12980-12984). Briefly, positive fish plasmids were transformed into Y187 and the panel of baits were transformed into HF7c. Transformed fish and bait cells were streaked out as stripes on selective medium plates, mated on YPAD plates, and tested for reporter gene activity.

In experiment [2] the target is T2, rKv4.2N (Rattus norvegicus, UniProt Q63881).
T2 construct: the N-terminal domains of Kv4.3, Kv4.2 were expressed as “baits” (Kv4.3N, Kv4.2N, respectively); expressed in transfected cells; host or cells: yeast HF7c (baits), mated with Y187 (fish)
T2 sequence (Q63881 1-184 limits assumed): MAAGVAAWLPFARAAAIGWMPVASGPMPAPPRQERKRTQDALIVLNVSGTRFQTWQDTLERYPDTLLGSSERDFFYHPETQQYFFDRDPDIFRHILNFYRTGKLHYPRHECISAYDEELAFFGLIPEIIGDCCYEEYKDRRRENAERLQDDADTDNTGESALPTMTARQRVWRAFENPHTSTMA
Put plainly: Yeast two-hybrid binding and specificity test, Kv4.2 N-terminal bait. The procedure:
as §1, §2

For experiment [3], the target named is T3, rKv1.1N (Rattus norvegicus, UniProt P10499).
T3 construct: expressed in transfected cells; host or cells: yeast HF7c (baits), mated with Y187 (fish)
Put plainly: Yeast two-hybrid binding and specificity test, Kv1.1 N-terminal bait. The procedure: as §1, §2

T3 sequence (P10499 1-164 limits assumed): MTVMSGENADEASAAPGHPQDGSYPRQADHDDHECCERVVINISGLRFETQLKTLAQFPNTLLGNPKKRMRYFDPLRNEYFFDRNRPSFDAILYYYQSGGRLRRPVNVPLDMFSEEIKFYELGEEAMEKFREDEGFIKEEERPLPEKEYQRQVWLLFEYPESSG

B1: Rat 1p: partial rat PCIP of 267 amino acid residues, similar to human Restin (protein)
chain: LKGARPRVVNSTCSDFNHGSALHIAASNLCLGAAKCLLEHGANPALRNRKGQVPAEVVPDPMDMSLDKAEAALVAKELRTLLEEAVPLSCTLPKVTLPNYDNVPGNLMLSALGLRLGDRVLLDGQKTGTLRFCGTTEFASGQWVGVELDEPEGKNDGSVGGVRYFICPPKQGLFASVSKVSKAVDAPPSSVTSTPRTPRMDFSRVTGKGRREHKGKKKSPSSPSLGSLQQREGAKAEVGDQVLVAGQNRDCAFLWEDRLCSRLLVWH
In the case of B1, in experiment [1], the “binding to rKv4.3N in yeast two-hybrid assay” value (“binding to rKv4.3N” below) is “binds”; the “preference between rKv4.3N and rKv4.2N in yeast two-hybrid assay” value (shortened to “preference between rKv4.3N and rKv4.2N”) is “slight preference for rKv4.3N”. Further, the “binding to rKv4.2N in yeast two-hybrid assay” value (“binding to rKv4.2N” for short) in experiment [2] is “binds”. In addition, the “binding to rKv1.1N in yeast two-hybrid assay” value (“binding to rKv1.1N” below) in experiment [3] was “does not bind”.

B2: Rat 7s: rat ortholog of the human vacuolar H(+)-ATPase catalytic subunit A (partial) (protein)
chain: ADSTSRWAEALREISGRLAEMPADSGYPAYLGARLASFYERAGRVKCLGNPEREGSVSIVGAVSPPGGDFSDPVTSATLGIVQVFWGLDKKLAQRKHFPSVNWLISYSKYMRALDEYYDKHFTEFVPLRTKAKEILQEEEDLAEIVQLVGKASLAETDKITLEVAKLIKDDFLQQNGYTPYDRFCPFYKTVGMLSNMISFYDMARRAVETTAQSDNKITWSIIREHMGEILYKLSSMKFKDPVKDGEAKIKADYAQLLEDMQNAFRSLED
B2: in experiment [1], the “binding to rKv4.3N” value is “binds”; the “preference between rKv4.3N and rKv4.2N” value is “preference for rKv4.3N”. For the same molecule, the “binding to rKv4.2N” value in experiment [2] is “binds”. The “binding to rKv1.1N” value in experiment [3] was “does not bind”.

B3: Rat 33b07: PCIP of 407 amino acid residues, homologous to SET and Nucleosome Assembly Proteins (protein)
chain: MNGVEGNNELPLANTSTSALVPEDLDLKQDQPLSEETDTVREMEAAGEAGAEGGASPDSEHCDPQLCLRVAENGCAAAAGEGLEDGLSSSKCGDAPLASVAANDSNKNGCQLAGPLSPAKPKTLEASGAVGLGSQMMPGPKKTKVMTTKGAISATTGKEGEAGAAMQEKKGVQKEKKAAGGGKDETRPRAPKINNCMDSLEAIDQELSNVNAQADRAFLQLERKFGRMRRLHMQRRSFIIQNIPGFWVTAFRNHPQLSPMISGQDEDMMRYMINLEVEELKHPRAGCKFKFIFQSNPYFRNEGLVKEYERRSSGRVVSLSTPIRWHRGQEPQAHIHRNREGNTIPSFFNWFSDHSLLEFDRIAEIIKGELWSNPLQYYLMGDGPRRGVRVPPRQPVESPRSFRFQSG
Take B3: in experiment [1], the “binding to rKv4.3N” value is reported as “binds”; the “preference between rKv4.3N and rKv4.2N” value is on record as “slight preference for rKv4.2N”. In addition, in experiment [2], the “binding to rKv4.2N” value is listed as “binds”. Besides, the “binding to rKv1.1N” value in experiment [3] is given as “does not bind”.

B4: Rat 29x: identical at the amino acid level to rat SOCS-1 (Suppressor Of Cytokine Signaling) (protein)
chain: ARLPAPEHARQQPLLSGPEPGSSARVPVPGVASRRQPRGGKPPSGDGLESGPSPRPLLHARGEAGLHRQSGRVPHTGTAYFADEPTEAQAPGGFCVSPSLLGVRWPACATRTPGSLPLSPPSAQPRTLWPTPPAGPSSRMVARNQVAADNAISPASEPRRRPEPSSSSSSSSPAAPARPRPCPVVPAPAPGDTHFRTFRSHSDYRRITRTSALLDACGFYWGPLSVHGAHERLRAEPVGTFLVRDSRQRNCFFALSVKMASGPTSIRVHFQAGRFHLDGSRETFDCLFELLEHYVAAPRRMLGAPLRQRRVRPLQELCRQRIVAAVGRENLARIPLNPVLRDYLSSFPFQI
For the molecule B4, in experiment [1], the “binding to rKv4.3N” value is “binds”; the “preference between rKv4.3N and rKv4.2N” value is listed as “slight preference for rKv4.3N”. The “binding to rKv4.2N” value in experiment [2] is “binds”. Also, the “binding to rKv1.1N” value in experiment [3] is listed as “does not bind”.
